Measured values as given in publication PMC12292641.

Target: PpbHLH1 (Phalaenopsis pulcherrima)

dual-luciferase assay in tobacco leaves: PpANS promoter activity with PpMYB1 and PpbHLH1 co-expressed, against PpMYB1 alone: 4.7 fold
Substance: PpMYB1 (natural protein)
